Laboratory results from IntAct's records for PubMed 20600852.

B1: Inhibitor of nuclear factor kappa-B kinase subunit beta (Homo sapiens), O14920 (parent)
chain: MSWSPSLTTQTCGAWEMKERLGTGGFGNVIRWHNQETGEQIAIKQCRQELSPRNRERWCLEIQIMRRLTHPNVVAARDVPEGMQNLAPNDLPLLAMEYCQGGDLRKYLNQFENCCGLREGAILTLLSDIASALRYLHENRIIHRDLKPENIVLQQGEQRLIHKIIDLGYAKELDQGSLCTSFVGTLQYLAPELLEQQKYTVTVDYWSFGTLAFECITGFRPFLPNWQPVQWHSKVRQKSEVDIVVSEDLNGTVKFSSSLPYPNNLNSVLAERLEKWLQLMLMWHPRQRGTDPTYGPNGCFKALDDILNLKLVHILNMVTGTIHTYPVTEDESLQSLKARIQQDTGIPEEDQELLQEAGLALIPDKPATQCISDGKLNEGHTLDMDLVFLFDNSKITYETQISPRPQPESVSCILQEPKRNLAFFQLRKVWGQVWHSIQTLKEDCNRLQQGQRAAMMNLLRNNSCLSKMKNSMASMSQQLKAKLDFFKTSIQIDLEKYSEQTEFGITSDKLLLAWREMEQAVELCGRENEVKLLVERMMALQTDIVDLQRSPMGRKQGGTLDDLEEQARELYRRLREKPRDQRTEGDSQEMVRLLLQAIQSFEKKVRVIYTQLSKTVVCKQKALELLPKVEEVVSLMNEDEKTVVRLQEKRQKELWNLLKIACSKVRGPVSGSPDSMNASRLSQPGQLMSQPSTASNSLPEPAKKSEELVAEAHNLCTLLENAIQDTVREQDQSFTALDWSWLQTEEEEHSCLEQAS

Variants of: B1
Details: with keap1_human KEAP1, Q14145
keap1_human KEAP1, Q14145, sequence (Q14145 whole entry): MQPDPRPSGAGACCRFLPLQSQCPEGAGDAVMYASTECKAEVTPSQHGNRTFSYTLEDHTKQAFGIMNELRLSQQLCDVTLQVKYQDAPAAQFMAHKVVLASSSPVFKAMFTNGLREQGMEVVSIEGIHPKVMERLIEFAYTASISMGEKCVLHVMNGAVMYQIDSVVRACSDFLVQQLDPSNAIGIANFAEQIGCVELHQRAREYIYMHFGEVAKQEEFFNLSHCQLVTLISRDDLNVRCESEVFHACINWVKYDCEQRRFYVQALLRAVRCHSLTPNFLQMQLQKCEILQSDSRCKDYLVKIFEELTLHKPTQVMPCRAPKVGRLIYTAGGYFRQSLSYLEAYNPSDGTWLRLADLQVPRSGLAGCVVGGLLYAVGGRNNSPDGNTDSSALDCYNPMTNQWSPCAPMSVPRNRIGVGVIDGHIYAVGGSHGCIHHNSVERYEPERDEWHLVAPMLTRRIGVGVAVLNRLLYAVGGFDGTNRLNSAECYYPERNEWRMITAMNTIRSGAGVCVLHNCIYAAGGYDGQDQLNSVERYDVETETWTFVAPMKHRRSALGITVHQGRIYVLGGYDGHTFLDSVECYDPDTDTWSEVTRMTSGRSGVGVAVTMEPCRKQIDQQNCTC

| effect of a mutation on the interaction | Variant |
| --- | --- |
| decreasing interaction | E39G |
